In publication doi:10.1101/2021.10.06.463400:

Target: actin (skeletal muscle thin filament) (mouse (endogenous in psoas myofibrils)) (UniProt P68134)
Experiment: cryo-EM structure

stoichiometry, nebulin simple repeat to actin subunit: 1
Substance: nebulin (from UniProt E9Q1W3 1-7152) (natural protein)
